The record followed here is patent publication WO2014041119A1 (dated 2014).

In the assay the target is T1, EGFR on the surface of A431 cells (human, UniProt P00533 25-1210).
T1 construct: whole, on cells; also called cell surface EGFR
The assay can be described thus: flow cytometry on A431 cells with cetuximab or rituximab pre-incubation. In general terms: In flow cytometry, cells or beads pass a laser one at a time.

B1: ONC-scFvEGFR (onconase (ONC) fused to a single-chain antibody fragment (scFv) against EGFR) (scFv)
chain: QDWLTFQKKHITNTRDVDCDNIMSTNLFHCKDKNTFIYSRPEPVKAICKGIIASKNVLTTSEFYLSDCNVTSRPCKYKLKKSTNKFCVTCENQAPVHFVGVGSCGGGGSGGGGSGGGGSEVQLVESGGGLVQPGGSLRLSCAASGFSLTNYGVHWVRQAPGKGLEWLGVIWSGGNTDYNTPFTSRFTISRDNSKNTLYLQMNSLRAEDTAVYYCARALTYYDYEFAYWGQGTTVTVSSGGGGSGGGGSGGGGSDIQLTQSPSFLSASVGDRVTITCRASQSIGTNIHWYQQKPGKAPKLLIKYASESISGVPSRFSGSGSGTEFTLTISSLQPEDFATYYCQQNNNWPTTFGAGTKLEIKRAAAEQKLISEEDLNGAAHHHHHH
notes: also called immunoRNase; fusion polypeptide
Take B1: the binding result is “binds”.
